Earlier results on two substances are cited in publication PMC5035964.

Targets include CD46 (Homo sapiens) (UniProt P15529); SLAMF1 (Homo sapiens) (UniProt Q13291); Nectin-4 (Homo sapiens) (UniProt Q96NY8).
UniProt Q13291, sequence (Q13291 21-335): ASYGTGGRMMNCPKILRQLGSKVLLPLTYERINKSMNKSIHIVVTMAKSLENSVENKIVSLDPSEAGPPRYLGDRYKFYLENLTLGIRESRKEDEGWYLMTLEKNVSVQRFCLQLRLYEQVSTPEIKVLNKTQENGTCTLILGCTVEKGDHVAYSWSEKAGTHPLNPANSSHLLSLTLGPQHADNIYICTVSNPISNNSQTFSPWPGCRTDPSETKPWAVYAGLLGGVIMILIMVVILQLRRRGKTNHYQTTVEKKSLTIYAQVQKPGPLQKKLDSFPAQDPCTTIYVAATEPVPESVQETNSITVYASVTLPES
UniProt P15529, sequence (P15529 35-392): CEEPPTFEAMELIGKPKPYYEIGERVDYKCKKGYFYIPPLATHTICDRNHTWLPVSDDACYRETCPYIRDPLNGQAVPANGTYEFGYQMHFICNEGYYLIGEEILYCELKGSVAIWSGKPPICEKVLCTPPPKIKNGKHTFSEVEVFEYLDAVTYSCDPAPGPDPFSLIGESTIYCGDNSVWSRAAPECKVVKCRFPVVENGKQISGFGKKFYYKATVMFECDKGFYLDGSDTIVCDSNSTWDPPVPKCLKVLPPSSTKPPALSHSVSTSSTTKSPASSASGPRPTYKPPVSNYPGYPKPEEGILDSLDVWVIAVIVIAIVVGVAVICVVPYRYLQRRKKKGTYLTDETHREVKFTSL
UniProt Q96NY8, sequence (Q96NY8 32-510): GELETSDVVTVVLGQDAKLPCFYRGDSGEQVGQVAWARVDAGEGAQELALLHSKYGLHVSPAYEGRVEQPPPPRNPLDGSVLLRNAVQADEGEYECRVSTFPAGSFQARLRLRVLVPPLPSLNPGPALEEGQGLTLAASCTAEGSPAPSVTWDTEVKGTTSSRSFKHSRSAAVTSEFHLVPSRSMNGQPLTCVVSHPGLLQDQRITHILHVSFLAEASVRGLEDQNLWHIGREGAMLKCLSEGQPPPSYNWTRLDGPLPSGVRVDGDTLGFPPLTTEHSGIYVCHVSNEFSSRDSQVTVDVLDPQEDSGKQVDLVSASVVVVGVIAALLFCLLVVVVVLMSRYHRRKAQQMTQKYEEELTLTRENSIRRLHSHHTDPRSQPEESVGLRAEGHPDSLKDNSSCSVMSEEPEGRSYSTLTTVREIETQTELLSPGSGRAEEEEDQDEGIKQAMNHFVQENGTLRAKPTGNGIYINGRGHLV

What is called Kd is the equilibrium constant for the complex coming apart. For the substance “Measles virus hemagglutinin (H), Edmonston (from UniProt P08362)”, the equilibrium dissociation constant (Kd) with CD46 (Homo sapiens) is 0.079 µM.
“Measles virus hemagglutinin (H) (from UniProt P08362)”: the figures for the equilibrium dissociation constant (Kd) in the data set with SLAMF1 (Homo sapiens) and with Nectin-4 (Homo sapiens) were 0.08 µM and 0.02 µM, respectively.
